Experimental data: patent publication US20220242939A1 (BIOARCTIC, published 2022)
Non-standard residues stand in square brackets, D forms with d. No end group written: not given here. Ahx = NCCCCCC(=O)O

T1: L198 N-terminal neo-epitope peptide LAGQPL-Acp-C (SEQ ID NO:52) conjugated to BSA (human, not fully specified (residue 8); printed as LAGQPL-Acp-C; also: C-terminal Cys conjugated to BSA carrier)
T1 construct: BSA carrier; also called L198-BSA peptide
T1 peptide: LAGQPL[Ahx]C

T2: L198 N-terminal neo-epitope peptide LAGQPLQE-Acp-C (SEQ ID NO:54) conjugated to BSA (human, not fully specified (residue 10); printed as LAGQPLQE-Acp-C; also: C-terminal Cys conjugated to BSA carrier)
T2 construct: BSA carrier
T2 peptide: LAGQPLQE[Ahx]C


How the values were obtained:
[1] = biological target: 36A12, monoclonal anti-A199 antibody; test: inhibition ELISA: antigen in solution varied, antibody 36A12 at 0.05 µg/ml, plate coated with A199-BSA peptide
Protocol: (§1) 0.5 μg/ml solution of N-terminal neo-epitope peptide A199 (SEQ ID NO:51) conjugated to BSA was prepared by dilution in PBS. 50 μl/well were added to an ELISA half-area 96 well microtiter plate, the plate was sealed with adhesive sealer and incubated over night at 4° C. After discarding the solution, the plates were blocked with protein-free blocking solution (Pierce) (150 μl/well) at room temperature for 90 min with shaking (900 rpm). The blocked plate was washed four times with washing buffer containing 0.28 mM NaH₂PO₄, 2.5 mM Na₂HPO₄, 150 mM NaCl, 0.1% TWEEN®-20 and 0.0075% Kathon CG.
(§2) Serial dilutions of each synthetic ApoE peptide were prepared by 4-fold dilution starting from 10000 ng/ml in 96 well storage plates (30 μl final volume). Each purified monoclonal antibody to be tested was added (30 μl) to the serial dilutions of each of the synthetic ApoE peptides at a final concentration of 0.05 μg/ml per well. […]
(§3) The pre-incubated samples were transferred (50 μl/well) to the blocked ELISA plates, and plates were incubated for 10 min at room temperature without shaking. […] Alkaline phosphatase substrate (50 μl/well) was added to the plate and the optical density was read every 10 min at a wavelength of 405 nm for up to 120 min. The IC50 values were determined from a log inhibitor concentration response curve (FIG. 29).

[2] = biological target: 17G4, recombinant IgG2c antibody; test: inhibition ELISA, second protocol; antibody at 0.05 ug/ml pre-incubated with the peptide in solution (4-fold dilutions from 10000 ng/ml), then on a plate coated with G200-BSA peptide; blank reduced OD 405 nm
Protocol: (§4) 3-fold serial dilutions of each synthetic ApoE peptide, recombinant C-terminal ApoE fragment G200-HIS and full-length ApoE4 were prepared by 4-fold dilution starting from 1000 ng/ml in 96 well storage plates (30 μl final volume). Each recombinant antibody to be tested was added (30 μl) to the serial dilutions of each of the synthetic ApoE peptides, G200-HIS or full-length ApoE4 at a final concentration of 0.05 μg/ml per well. Samples were pre-incubated for 45 min at room temperature with shaking (900 rpm).
(§5) The pre-incubated samples were transferred (50 μl/well) to the blocked ELISA plates, and plates were incubated for 25 min at room temperature without shaking. Plates were washed as described above. Alkaline phosphatase conjugated anti-mouse IgG detection antibody (Mabtech, cat. no. 3310-4) was diluted 1:1000 and added to each plate (50 μl/well). The plate was sealed and incubated with shaking (900 rpm) for 45 min at room temperature and subsequently washed as described above. Alkaline phosphatase substrate (50 μl/well) was added to the plate and the optical density was read every 15 min at a wavelength of 405 nm for up to 120 min. The IC50 values were determined from a log inhibitor concentration response curve (FIG. 17).
(§6) In addition, a second inhibition ELISA with the ApoE peptides conjugated to BSA was run, in which the starting concentration of the antigens in solution was increased 10-fold. i.e. the starting concentration of the N-terminal neo-epitope of synthetic ApoE peptides conjugated to BSA and starting at amino acid L198 (SEQ ID NO:52), A199 (SEQ ID NO:51) or G200 (SEQ ID NO:50), or to BSA-conjugated negative control peptide (SEQ ID NO:53), was 10000 ng/ml. Furthermore, a 4-fold serial dilution of antigen was used, the plates were blocked with protein-free blocking solution (Pierce) for 90 min, the pre-incubated samples were incubated on the coated plates for 10 min (instead of 25 min), and the optical density was read every 10 min (instead of every 15 min). IC50 values were determined from a log inhibitor concentration response curve (FIG. 20).

[3] = biological target: T3, 7B10, recombinant IgG2c antibody; test: as above
T3 construct: also called 7610
Protocol: as §4, §5, §6

[4] = biological target: 23D5, recombinant IgG2c antibody; test: as above
Protocol: as §4, §5, §6

[5] = biological target: 7C7, recombinant IgG2c antibody; test: as above
Protocol: as §4, §5, §6

[6] = biological target: 38G9, monoclonal anti-A199 antibody; test: inhibition ELISA: antigen in solution varied, antibody 38G9 at 0.05 µg/ml, plate coated with A199-BSA peptide
Protocol: as §1, §2, §3

[7] = biological target: 6F4, monoclonal anti-L198 antibody; test: inhibition ELISA; antibody at 0.05 ug/ml pre-incubated with the peptide in solution (4-fold dilutions from 10000 ng/ml), then on a plate coated with L198-BSA peptide; blank reduced OD 405 nm
Protocol: as §1, with “L198” for “A199”, “NO:52)” for “NO:51)”
as §4, with “Serial” for “3-fold serial”, “peptide” for “peptide, recombinant C-terminal ApoE fragment G200-HIS and full-length ApoE4”, “10000” for “1000”, “peptides” for “peptides, G200-HIS or full-length ApoE4”
as §5, with “10” for “25”, “10” for “15”, “25).” for “17).”

[8] = biological target: 67G3, monoclonal anti-A199 antibody; test: inhibition ELISA: antigen in solution varied, antibody 67G3 at 0.05 µg/ml, plate coated with A199-BSA peptide
Protocol: as §1, §2, §3

[9] = biological target: 63F6, monoclonal anti-A199 antibody; test: inhibition ELISA: antigen in solution varied, antibody 63F6 at 0.05 µg/ml, plate coated with A199-BSA peptide
Protocol: as §1, §2, §3

[10] = biological target: T4, recombinant C-terminal ApoE fragment L198-HIS (ApoE-L198-H299-10xHIS) (human, UniProt P02649 216-317); test: SPR (Biacore 8K), L198-HIS amine-coupled on CM5, antibody as analyte, bivalent analyte fit (kd1)
T4 construct: also called L198-HIS fragment
Protocol: (§7) Selectivity evaluation and KD determination of purified monoclonal antibodies by surface plasmon resonance: Binding interactions between the antigens and antibodies were evaluated by surface plasmon resonance (SPR) using a Biacore 8K instrument (GE Healthcare) according to standard procedures.
(§8) Selectivity evaluation and KD determination of purified monoclonal antibodies by surface plasmon resonance: The five purified monoclonal antibodies 6F4, 8B3, 12B1, 15F8 and 15H11 were evaluated for selectivity, and KD values for the target antigen were determined by surface plasmon resonance.

[11] = biological target: T4, recombinant C-terminal ApoE fragment …; test: SPR (Biacore 8K), L198-HIS amine-coupled on CM5, antibody as analyte, bivalent analyte fit (ka1)
[12] = biological target: T1, L198 N-terminal neo-epitope peptide …; test: direct ELISA, L198-BSA peptide coated at 1 µg/ml
Protocol: (§9) Selectivity evaluation of purified monoclonal antibodies by direct ELISA: The direct ELISA described below was used to evaluate the binding selectivity of the purified monoclonal antibodies produced in Example 14.
(§10) The screening was performed according to standard ELISA protocols. Briefly, 1 μg/ml solutions of BSA-conjugated neo-epitope peptides and negative control peptide, and 0.1 μM recombinant C-terminal ApoE fragment and full-length ApoE (Abcam, cat. no. ab50243) were prepared by dilution in PBS. 50 μl/well were added to an ELISA half-area 96 well microtiter plate, and the plate was sealed with adhesive sealer and incubated over night at 4° C. After discarding the solution, the plates were blocked with 150 μl/well of protein-free blocking solution (Pierce) for 1 h at room temperature with shake (600-900 rpm). The plates were washed four times with washing buffer containing 0.28 mM NaH₂PO₄, 2.5 mM Na₂HPO₄, 150 mM NaCl, 0.1% TWEEN®-20 and 0.0075% Kathon CG. Purified monoclonal antibodies of interest were 3-fold serially diluted with a starting dilution at 3 μg/ml (mixed 1:2 with dilution buffer (PBS with 0.1% BSA and 0.05% TWEEN®-20)). An anti-ApoE C-terminal antibody was used as a reference antibody (ApoE E-8 mouse monoclonal, Santa Cruz Biotechnology, cat. no. sc-393302). 50 μl/well were added into the ELISA plates and incubated for 2 h at room temperature with shake (600-900 rpm). The plates were washed four times as described previously. […] After another wash (as described previously), 50 μl/well of K-Blue® aqueous substrate (Neogen) were added, and the reaction was stopped after 5-15 min with 50 μl/well of 0.5 M […]. The optical density at 450 nm was read using an ELISA reader (Tecan).

[13] = biological target: T4, recombinant C-terminal ApoE fragment …; test: SPR (Biacore 8K), L198-HIS amine-coupled on CM5, antibody as analyte, bivalent analyte fit (KD1)
Protocol: as §7, §8

[14] = biological target: T4, recombinant C-terminal ApoE fragment …; test: direct ELISA, L198-HIS coated at 0.1 µM
Protocol: as §9, §10

[15] = biological target: T5, full-length ApoE in human brain extract from Alzheimer's disease patients (human, UniProt P02649 19-317); test: Western blot of AD brain RIPA 2% SDS extract; monoclonal antibody at 2 ug/ml as primary antibody
T5 construct: mature; Endogenous protein on Western blot or in solution (IP); also called ApoE full-length protein

[16] = biological target: T2, L198 N-terminal neo-epitope peptide …; test: direct ELISA after limiting dilution

T4 sequence (P02649 other isoform, or with tags, fused parts or gaps limits assumed): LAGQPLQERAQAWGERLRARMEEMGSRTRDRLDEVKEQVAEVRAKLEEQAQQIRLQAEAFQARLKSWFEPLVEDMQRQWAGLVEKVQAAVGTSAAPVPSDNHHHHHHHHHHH
6F4, monoclonal anti-L198 antibody, sequence (VH, as listed by the source, chain 1 of 2): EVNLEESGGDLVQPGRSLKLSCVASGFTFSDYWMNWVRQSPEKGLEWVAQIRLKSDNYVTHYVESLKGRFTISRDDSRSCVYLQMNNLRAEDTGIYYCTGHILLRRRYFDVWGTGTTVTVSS
6F4, monoclonal anti-L198 antibody, sequence (VL, as listed by the source, chain 2 of 2): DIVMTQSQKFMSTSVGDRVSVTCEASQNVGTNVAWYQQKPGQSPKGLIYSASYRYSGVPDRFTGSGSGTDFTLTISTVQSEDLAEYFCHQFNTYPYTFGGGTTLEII
23D5, recombinant IgG2c antibody, sequence (VH, as listed by the source, chain 1 of 2): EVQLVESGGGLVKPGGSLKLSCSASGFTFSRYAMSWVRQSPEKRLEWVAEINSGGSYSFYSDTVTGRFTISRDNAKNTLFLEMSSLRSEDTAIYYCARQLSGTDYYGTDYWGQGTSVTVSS
23D5, recombinant IgG2c antibody, sequence (VL, as listed by the source, chain 2 of 2): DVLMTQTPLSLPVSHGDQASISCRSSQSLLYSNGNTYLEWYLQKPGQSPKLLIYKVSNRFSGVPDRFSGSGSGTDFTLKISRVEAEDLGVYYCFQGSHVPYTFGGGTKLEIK
7C7, recombinant IgG2c antibody, sequence (VH, as listed by the source, chain 1 of 2): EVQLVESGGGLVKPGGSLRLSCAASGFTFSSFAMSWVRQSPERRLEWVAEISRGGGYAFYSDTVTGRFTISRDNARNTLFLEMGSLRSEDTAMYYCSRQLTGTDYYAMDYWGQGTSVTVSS
7C7, recombinant IgG2c antibody, sequence (VL, as listed by the source, chain 2 of 2): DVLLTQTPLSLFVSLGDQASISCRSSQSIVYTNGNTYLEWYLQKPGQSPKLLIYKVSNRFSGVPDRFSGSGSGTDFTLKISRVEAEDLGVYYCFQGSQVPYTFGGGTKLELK
T5 sequence (P02649 19-317): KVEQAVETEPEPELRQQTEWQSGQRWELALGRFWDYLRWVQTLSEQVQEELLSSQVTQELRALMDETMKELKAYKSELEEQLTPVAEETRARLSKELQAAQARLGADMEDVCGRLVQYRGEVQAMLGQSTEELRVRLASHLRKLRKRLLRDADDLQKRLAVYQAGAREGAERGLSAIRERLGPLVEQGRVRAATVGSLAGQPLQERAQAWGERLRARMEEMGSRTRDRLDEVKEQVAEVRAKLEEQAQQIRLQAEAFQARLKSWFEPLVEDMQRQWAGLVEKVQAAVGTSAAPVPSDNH
17G4, recombinant IgG2c antibody, sequence (VH, as listed by the source, chain 1 of 2): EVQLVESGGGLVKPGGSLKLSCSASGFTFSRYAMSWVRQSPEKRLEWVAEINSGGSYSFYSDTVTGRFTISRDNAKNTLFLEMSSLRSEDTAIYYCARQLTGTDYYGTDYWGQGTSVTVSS
38G9, monoclonal anti-A199 antibody, sequence (VH, as listed by the source, chain 1 of 2): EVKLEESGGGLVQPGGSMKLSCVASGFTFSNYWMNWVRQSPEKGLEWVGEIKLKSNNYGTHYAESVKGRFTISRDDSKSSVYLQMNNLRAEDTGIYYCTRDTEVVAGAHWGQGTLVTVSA
38G9, monoclonal anti-A199 antibody, sequence (VL, as listed by the source, chain 2 of 2): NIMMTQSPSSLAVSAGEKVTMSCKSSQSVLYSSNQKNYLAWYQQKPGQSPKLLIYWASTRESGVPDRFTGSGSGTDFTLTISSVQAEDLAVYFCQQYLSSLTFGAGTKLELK
63F6, monoclonal anti-A199 antibody, sequence (VH, as listed by the source, chain 1 of 2): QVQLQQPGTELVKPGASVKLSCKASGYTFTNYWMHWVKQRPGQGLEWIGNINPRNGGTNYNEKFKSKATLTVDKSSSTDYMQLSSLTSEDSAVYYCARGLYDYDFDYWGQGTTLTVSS
63F6, monoclonal anti-A199 antibody, sequence (VL, as listed by the source, chain 2 of 2): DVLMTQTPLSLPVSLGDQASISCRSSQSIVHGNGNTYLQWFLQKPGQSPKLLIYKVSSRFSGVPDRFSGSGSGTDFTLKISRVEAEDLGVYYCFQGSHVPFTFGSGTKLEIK
67G3, monoclonal anti-A199 antibody, sequence (VH, as listed by the source, chain 1 of 2): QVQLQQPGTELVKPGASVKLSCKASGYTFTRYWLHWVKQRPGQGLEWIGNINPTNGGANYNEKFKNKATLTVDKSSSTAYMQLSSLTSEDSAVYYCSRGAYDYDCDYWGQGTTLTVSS
67G3, monoclonal anti-A199 antibody, sequence (VL, as listed by the source, chain 2 of 2): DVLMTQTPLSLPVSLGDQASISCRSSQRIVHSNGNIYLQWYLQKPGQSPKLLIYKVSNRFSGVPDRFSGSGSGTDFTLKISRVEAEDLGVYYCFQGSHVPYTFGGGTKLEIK
T3 sequence (VH, as listed by the source, chain 1 of 2): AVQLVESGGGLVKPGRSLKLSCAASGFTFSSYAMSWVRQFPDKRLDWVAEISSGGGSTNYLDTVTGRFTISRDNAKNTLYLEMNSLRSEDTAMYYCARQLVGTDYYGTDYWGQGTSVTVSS
T3 sequence (VL, as listed by the source, chain 2 of 2): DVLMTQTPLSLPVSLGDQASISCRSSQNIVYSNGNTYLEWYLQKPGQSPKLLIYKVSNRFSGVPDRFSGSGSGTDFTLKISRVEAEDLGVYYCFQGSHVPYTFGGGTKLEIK
36A12, monoclonal anti-A199 antibody, sequence (VH, as listed by the source, chain 1 of 2): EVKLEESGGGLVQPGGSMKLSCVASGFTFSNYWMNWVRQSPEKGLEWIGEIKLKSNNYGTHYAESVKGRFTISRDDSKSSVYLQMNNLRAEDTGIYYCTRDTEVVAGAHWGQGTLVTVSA
36A12, monoclonal anti-A199 antibody, sequence (VL, as listed by the source, chain 2 of 2): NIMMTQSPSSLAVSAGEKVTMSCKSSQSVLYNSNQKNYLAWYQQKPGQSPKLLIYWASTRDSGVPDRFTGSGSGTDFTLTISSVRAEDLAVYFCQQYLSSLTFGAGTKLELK

| IC50 [1] | binding result [2] | binding result [3] | binding result [4] | binding result [5] | IC50 [6] | binding result [7] | IC50 [8] | IC50 [9] | koff [10] | kon [11] | EC50 [12] | Kd [13] | EC50 [14] | binding result [15] | binding result [16] | Binder |
| --- | --- | --- | --- | --- | --- | --- | --- | --- | --- | --- | --- | --- | --- | --- | --- | --- |
| 27.7 ng/mL | no binding (tested: 10000 ng/ml) | no binding (tested: 10000 ng/ml) | no binding (tested: 10000 ng/ml) | no binding (tested: 10000 ng/ml) | 52.6 ng/mL | no binding (tested: 10000 ng/ml) | 2.9 ng/mL | 2.5 ng/mL | – | – | – | – | – | – | – | AGQPLQ[Ahx]C (not fully specified (residue 8); printed as AGQPLQ-Acp-C; also: C-terminal Cys conjugated to BSA carrier, BSA carrier; also called A199-BSA peptide) [A199 N-terminal neo-epitope peptide AGQPLQ-Acp-C (SEQ ID NO:51) conjugated to BSA] |
| – | – | – | – | – | – | – | – | – | 0.000302 s⁻¹ | 42000 M⁻¹ s⁻¹ | 8.4 ng/mL | 12 nM | 1.3 ng/mL | no binding (tested: 2 ug/ml (text)) | binds | 8B3, monoclonal anti-L198 antibody (antibody, IgG2b, V domains shown) VH: EVKVEESGGGVVQPGGSMKLSCLASGFTFRNYWMNWVRQSPEKGLEWVAQIRLKSDNYATRYAESVKGRFTISRDDSKSSVYLQMNNLRAEDTGTYYCSGHILLRYYALDFWGQGTSVTVSS VL: DIVLTQSQKFMSTSVGDRVSVTCKASQNVYTDVAWYQQKPGQSPKGMIYSASYRYSGVPDRFTGSGSGTDFTLKISNVQSEDLAEYFCQQYNSFPYTFGGGTKLEIK |
